From patent US20200115447A1 (Chugai, published 2020)

T1: soluble human IL-6 receptor (human, UniProt P08887 20-357)
T1 construct: also called hsIL-6R
T1 sequence: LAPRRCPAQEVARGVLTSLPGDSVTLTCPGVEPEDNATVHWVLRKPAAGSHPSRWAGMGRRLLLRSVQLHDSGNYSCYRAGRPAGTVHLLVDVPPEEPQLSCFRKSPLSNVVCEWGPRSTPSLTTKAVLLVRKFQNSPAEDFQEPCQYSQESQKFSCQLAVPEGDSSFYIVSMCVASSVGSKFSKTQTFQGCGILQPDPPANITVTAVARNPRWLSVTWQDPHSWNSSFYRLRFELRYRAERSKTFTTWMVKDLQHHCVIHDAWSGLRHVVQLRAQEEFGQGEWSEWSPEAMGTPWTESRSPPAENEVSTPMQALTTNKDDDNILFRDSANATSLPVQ

T2: mFcγRI extracellular domain with C-terminal His-tag (mouse, UniProt P26151 25-297)
T2 construct: extracellular domain; also called mouse FcγRI
T2 sequence (looked up): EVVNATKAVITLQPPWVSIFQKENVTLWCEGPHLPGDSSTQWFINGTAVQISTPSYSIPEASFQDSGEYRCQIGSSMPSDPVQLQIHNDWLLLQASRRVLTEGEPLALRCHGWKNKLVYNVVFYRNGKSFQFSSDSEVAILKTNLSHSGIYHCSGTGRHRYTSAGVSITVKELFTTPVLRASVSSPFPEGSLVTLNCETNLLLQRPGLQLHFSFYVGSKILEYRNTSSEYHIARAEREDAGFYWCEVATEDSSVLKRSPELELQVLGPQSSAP

T3: mFcγRII extracellular domain with C-terminal His-tag (mouse, UniProt P08101 30-210)
T3 construct: extracellular domain; also called mouse FcγRII
T3 sequence (looked up): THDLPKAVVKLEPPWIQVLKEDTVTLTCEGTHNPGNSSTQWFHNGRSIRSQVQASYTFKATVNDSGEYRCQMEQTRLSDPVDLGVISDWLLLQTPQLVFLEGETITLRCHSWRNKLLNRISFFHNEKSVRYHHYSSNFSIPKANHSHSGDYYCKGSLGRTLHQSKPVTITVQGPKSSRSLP

T4: mFcγRIII extracellular domain with C-terminal His-tag (mouse, UniProt P08508 31-215)
T4 construct: extracellular domain; also called mouse FcγRIII
T4 sequence (looked up): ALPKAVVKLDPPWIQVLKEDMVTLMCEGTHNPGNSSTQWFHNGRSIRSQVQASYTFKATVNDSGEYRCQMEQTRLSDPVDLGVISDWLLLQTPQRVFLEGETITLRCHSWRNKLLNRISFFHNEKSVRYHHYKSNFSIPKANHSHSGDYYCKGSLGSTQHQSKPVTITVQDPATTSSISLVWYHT

T5: mFcγRIV extracellular domain with C-terminal His-tag (mouse)
T5 construct: extracellular domain; also called mouse FcγRIV
T5 sequence (A0A0B4J1G0 21-203, looked up): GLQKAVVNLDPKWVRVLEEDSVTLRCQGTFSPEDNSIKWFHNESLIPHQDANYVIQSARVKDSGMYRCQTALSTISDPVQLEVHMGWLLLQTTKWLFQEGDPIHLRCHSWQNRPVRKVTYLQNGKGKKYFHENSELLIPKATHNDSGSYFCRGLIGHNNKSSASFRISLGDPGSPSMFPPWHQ

T6: mouse FcRn (mouse, UniProt Q61559 22-297; P01887 21-119, limits assumed)
T6 sequence (looked up) 1: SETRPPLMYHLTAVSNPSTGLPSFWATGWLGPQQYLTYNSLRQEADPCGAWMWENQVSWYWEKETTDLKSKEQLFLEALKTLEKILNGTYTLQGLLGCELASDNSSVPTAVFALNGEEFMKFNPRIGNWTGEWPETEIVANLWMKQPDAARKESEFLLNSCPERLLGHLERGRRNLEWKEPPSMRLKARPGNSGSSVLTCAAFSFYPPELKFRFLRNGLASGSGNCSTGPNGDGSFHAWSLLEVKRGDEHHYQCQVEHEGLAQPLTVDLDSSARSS
T6 sequence (looked up) 2: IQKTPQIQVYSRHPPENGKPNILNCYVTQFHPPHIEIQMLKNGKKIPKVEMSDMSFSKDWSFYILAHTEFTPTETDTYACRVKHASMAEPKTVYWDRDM


What was measured:
[1] = molecular target: T1, soluble human IL-6 receptor; experiment: SPR (Biacore T100), antibody captured via protein A/G on a CM5 chip, human IL-6 receptor injected for 3 min, 1.2 mM CaCl2, pH 7.4, 37 C
Experimental: Interaction analyses were performed in a solution with a calcium ion concentration of 1.2 mM for the high calcium ion concentration condition or 3 μM for the low calcium ion concentration condition. A suitable amount of protein A/G (Invitrogen) was immobilized onto a Sensor chip CM5 (GE Healthcare) by the amine coupling method, and then antibodies of interest were captured onto the chips. Two types of buffers, 20 mM ACES, 150 mM NaCl, 0.05% (w/v) Tween 20, 1.2 mM CaCl₂ (pH 7.4) or 20 mM ACES, 150 mM NaCl, 0.05% (w/v) Tween 20, 3 μM CaCl₂ (pH 7.4), were used as the running buffer. […] All measurements were taken at 37° C.
Then, 10 mM glycine-HCl (pH 1.5) was injected at a flow rate of 30 μL/min for 30 seconds to regenerate the sensor chip.

[2] = molecular target: T2, mFcγRI extracellular domain with …; experiment: Biacore SPR, antibody captured on Protein L, FcγR extracellular domain as analyte, 25 C
Experimental: (§1) Analysis of interaction between each of the altered antibodies and the extracellular domain of the Fcγ receptor prepared as mentioned above was carried out using Biacore T100 (GE Healthcare), Biacore T200 (GE Healthcare), Biacore A100, and Biacore 4000. HBS-EP+(GE Healthcare) was used for the running buffer, and the interactions were measured with a measurement temperature at 25° C. Chips produced by immobilizing Protein L (ACTIGEN or BioVision) by the amine coupling method to a Series S sensor Chip CM5 (GE Healthcare) or Series S sensor Chip CM4 (GE Healthcare) were used.
After capturing of each of the altered antibodies onto these sensor chips, the extracellular domain of the Fcγ receptor diluted with the running buffer was allowed to act on the chips to measure the binding level of each of the domains to each of the antibodies, and the binding levels were compared. However, since the amount of the bound extracellular domain of the Fcγ receptor depends on the amount of the antibodies captured on the sensorchip, the amount of the bound extracellular domain of the Fcγ receptor was divided by the respective amount of captured antibody to obtain corrected values, and these values were compared. Furthermore, by reaction with 10 mM glycine-HCl having pH of 1.5, antibodies captured onto the sensor chips were washed, and the regenerated sensor chips were used repeatedly.

[3] = molecular target: T3, mFcγRII extracellular domain with …; experiment: Biacore SPR, antibody captured on Protein L, FcγR extracellular domain as analyte, 25 C, 1:1 Langmuir fit
Experimental: as §1
(§2) The KD values of each of the altered antibodies for the extracellular domain of the Fcγ receptor were calculated according to the following kinetic analysis method.

[4] = molecular target: T4, mFcγRIII extracellular domain with …; experiment: as above
Experimental: as §1, §2

[5] = molecular target: T2, mFcγRI extracellular domain with …; experiment: as above
Experimental: as §1, §2

[6] = molecular target: T5, mFcγRIV extracellular domain with …; experiment: as above
Experimental: as §1, §2

[7] = molecular target: T6, mouse FcRn; experiment: Biacore SPR, mouse FcRn, pH 7.0
[8] = molecular target: T1, soluble human IL-6 receptor; experiment: SPR (Biacore T100), about 300 RU of antibody captured via protein A/G on a CM5 chip, human IL-6 receptor injected for 3 min, pH 7.4, 1.2 mM CaCl2, 37 C
Experimental: The interaction for the antigen-antibody reaction was analyzed in solutions at pH 7.4 and pH 6.0, corresponding to a neutral pH and acidic pH conditions, respectively. An appropriate amount of Protein A/G (Invitrogen) was immobilized onto a Sensor chip CM5 (GE Healthcare) by an amino coupling method, and about 300 RU each of antibodies of interest were captured onto the chip. The two types of running buffers used were: 20 mM ACES/150 mM NaCl/0.05% (w/v) Tween20/1.2 mM CaCl₂ (pH 7.4); and 20 mM ACES/150 mM NaCl/0.05% (w/v) Tween20/1.2 mM CaCl₂ (pH 6.0). […] All measurements were carried out at 37° C.
Then, 10 mM glycine-HCl (pH 1.5) was injected at a flow rate of 30 μl/min for 30 seconds to regenerate the sensor chip.

Row | Binder | binding result [1] | Kd [3] [nM] | Kd [4] [nM] | other results
1 | 6RC1IgG_019 (antibody, V domains shown) VH: EVQLVQSGAEVKKPGSSVKVSCKASGGTFSSYAISWVRQAPGQGLEWMGGIIPIFGTANYAQKFQGRVTITADESTSTAYMELSSLRSEDTAVYYCARDRGSGFNWGNYAFDIWGQGFSVTVSS VL: DIQMTQSPSSLSASVGDRVTITCRASQSIEDDLAWYQQKPGKAPKLLIYEASNLQSGVPSRFSGSGSGTDFTLTISSLQPEDFATYYCQQYDRYPYTFGQGTKVEIKR | binds | – | – | –
2 | Fv4-mIgG2a (antibody, VH3-mIgG2a with VL3-mCK; copies: 2 + 2) heavy: QVQLQESGPGLVKPSETLSLTCAVSGHSISHDHAWSWVRQPPGEGLEWIGFISYSGITNYNPSLQGRVTISRDNSKNTLYLQMNSLRAEDTAVYYCARSLARTTAMDYWGEGTLVTVSSAKTTAPSVYPLAPVCGDTTGSSVTLGCLVKGYFPEPVTLTWNSGSLSSGVHTFPAVLQSDLYTLSSSVTVTSSTWPSQSITCNVAHPASSTKVDKKIEPRGPTIKPCPPCKCPAPNLLGGPSVFIFPPKIKDVLMISLSPIVTCVVVDVSEDDPDVQISWFVNNVEVHTAQTQTHREDYNSTLRVVSALPIQHQDWMSGKEFKCKVNNKDLPAPIERTISKPKGSVRAPQVYVLPPPEEEMTKKQVTLTCMVTDFMPEDIYVEWTNNGKTELNYKNTEPVLDSDGSYFMYSKLRVEKKNWVERNSYSCSVVHEGLHNHHTTKSFSRTPGK light: DIQMTQSPSSLSASVGDSVTITCQASTDISSHLNWYQQKPGKAPELLIYYGSHLLSGVPSRFSGSGSGTDFTFTISSLEAEDAATYYCGQGNRLPYTFGQGTKVEIERADAAPTVSIFPPSSEQLTSGGASVVCFLNNFYPKDINVKWKIDGSERQNGVLNSWTDQDSKDSTYSMSSTLTLTKDEYERHNSYTCEATHKTSTSPIVKSFNRNEC | – | 480 | 45 | Kd [5]: 3.9 nM; Kd [6]: 3.2 nM
3 | Fv4-mFa30 (antibody, mouse IgG2a, kappa, VH3-mFa30 with VL3-mCK; copies: 2 + 2) heavy: QVQLQESGPGLVKPSETLSLTCAVSGHSISHDHAWSWVRQPPGEGLEWIGFISYSGITNYNPSLQGRVTISRDNSKNTLYLQMNSLRAEDTAVYYCARSLARTTAMDYWGEGTLVTVSSAKTTAPSVYPLAPVCGDTTGSSVTLGCLVKGYFPEPVTLTWNSGSLSSGVHTFPAVLQSDLYTLSSSVTVTSSTWPSQSITCNVAHPASSTKVDKKIEPRGPTIKPCPPCKCPAPNLLGGPDVFIFPPKIKDVLYISLEPIVTCVVVDVSEDDPDVQISWFVNNVEVHTAQTQTHREDYNSTLRVVSALPIQHQDWMSGKEFKCKVNNDDYPAPIERTISKPKGSVRAPQVYVLPPPEEEMTKKQVTLTCMVTDFMPEDIYVEWTNNGKTELNYKNTEPVLDSDGSYFMYSKLRVEKKNWVERNSYSCSVVHEGLKFHHTTKSFSRTPGK light: DIQMTQSPSSLSASVGDSVTITCQASTDISSHLNWYQQKPGKAPELLIYYGSHLLSGVPSRFSGSGSGTDFTFTISSLEAEDAATYYCGQGNRLPYTFGQGTKVEIERADAAPTVSIFPPSSEQLTSGGASVVCFLNNFYPKDINVKWKIDGSERQNGVLNSWTDQDSKDSTYSMSSTLTLTKDEYERHNSYTCEATHKTSTSPIVKSFNRNEC | – | 8.1 | 5.3 | Kd [7]: 3.5 nM; Kd [5]: 0.99 nM; Kd [6]: 19 nM
4 | Tocilizumab (antibody, human IgG1, kappa, V domains shown, also called anti-IL-6R antibody (tocilizumab); control antibody) VH: QVQLQESGPGLVRPSQTLSLTCTVSGYSITSDHAWSWVRQPPGRGLEWIGYISYSGITTYNPSLKSRVTMLRDTSKNQFSLRLSSVTAADTAVYYCARSLARTTAMDYWGQGSLVTVSS VL: DIQMTQSPSSLSASVGDRVTITCRASQDISSYLNWYQQKPGKAPKLLIYYTSRLHSGVPSRFSGSGSGTDFTFTISSLQPEDIATYYCQQGNTLPYTFGQGTKVEIKR | binds | – | – | –
5 | 6RpH#02 (antibody, human IgG1, kappa, V domains shown) VH: QVQLVQSGAEVKKPGSSVKVSCKASGGTFSSYAISWVRQAPGQGLEWMGGIIPIFGTANYAQKFQGRVTITADESTSTAYMELSSLRSEDTAVYYCMINGVWEGGMDVWGQGTTVTVSS VL: DIQMTQSPSSLSASVGDRVTITCRASQSIHSHLNWYQQKPGKAPKLLIYHASKLQSGVPSRFSGSGSGTDFTLTISSLQPEDFATYYCQQHGNSPLTFGQGTKVEIKR | – | – | – | binding result [8]: binds
6 | 6RpH#01 (antibody, human IgG1, kappa, V domains shown) VH: EVQLVQSGAEVKKPGSSVKVSCKASGGTFSSYAISWVRQAPGQGLEWMGGIIPIFGTANYAQKFQGRVTITADESTSTAYMELSSLRSEDTAVYYCARASIYCSSTSCYEPPYYYYMDVWGKGTMVTVSS VL: DIQMTQSPSSLSASVGDRVTITCRASQSISSHLAWYQQKPGKAPKLLIYAASHLQSGVPSRFSGSGSGTDFTLTISSLQPEDFATYYCQQSHNYPLTFGQGTKVEIKR | – | – | – | binding result [8]: binds

Now from value to binder, other results behind:

Row | binding result [1] | Kd [3] [nM] | Kd [4] [nM] | Binder | other results
7 | – | 570 | 85 | Fv4-mIgG1 (antibody, VH3-mIgG1 with VL3-mCK; copies: 2 + 2) heavy: QVQLQESGPGLVKPSETLSLTCAVSGHSISHDHAWSWVRQPPGEGLEWIGFISYSGITNYNPSLQGRVTISRDNSKNTLYLQMNSLRAEDTAVYYCARSLARTTAMDYWGEGTLVTVSSAKTTPPSVYPLAPGSAAQTNSMVTLGCLVKGYFPEPVTVTWNSGSLSSGVHTFPAVLQSDLYTLSSSVTVPSSTWPSETVTCNVAHPASSTKVDKKIVPRDCGCKPCICTVPEVSSVFIFPPKPKDVLTITLTPKVTCVVVDISKDDPEVQFSWFVDDVEVHTAQTQPREEQFNSTFRSVSELPIMHQDWLNGKEFKCRVNSAAFPAPIEKTISKTKGRPKAPQVYTIPPPKEQMAKDKVSLTCMITDFFPEDITVEWQWNGQPAENYKNTQPIMDTDGSYFVYSKLNVQKSNWEAGNTFTCSVLHEGLHNHHTEKSLSHSPGK light: DIQMTQSPSSLSASVGDSVTITCQASTDISSHLNWYQQKPGKAPELLIYYGSHLLSGVPSRFSGSGSGTDFTFTISSLEAEDAATYYCGQGNRLPYTFGQGTKVEIERADAAPTVSIFPPSSEQLTSGGASVVCFLNNFYPKDINVKWKIDGSERQNGVLNSWTDQDSKDSTYSMSSTLTLTKDEYERHNSYTCEATHKTSTSPIVKSFNRNEC | binding result [2]: no binding
8 | binds | – | – | 6RC1IgG_012 (antibody, V domains shown) VH: QVQLVQSGAEVKKPGASVKVSCKASGYTFTSYGISWVRQAPGQGLEWMGWISAYNGNTNYAQKLQGRVTMTTDTSTSTAYMELRSLRSDDTAVYYCARATYYYDSSAPAFDIWGQGTMVTVSS VL: DIQMTQSPSSLSASVGDRVTITCRASQSIEDDLAWYQQKPGKAPKLLIYEASTLQSGVPSRFSGSGSGTDFTLTISSLQPEDFATYYCQQHDDSPLTFGQGTKVEIKR | –
9 | binds | – | – | 6RC1IgG_010 (antibody, V domains shown) VH: QVQLVQSGAEVKKPGSSVKVSCKASGGTFSSYAISWVRQAPGQGLEWMGGIIPIFGTANYAQKFQGRVTITADESTSTAYMELSSLRSEDTAVYYCARAAFLEWPIWGSEYFQHWGQGTLVTVSS VL: DIQMTQSPSSLSASVGDRVTITCRASQSIEDDLAWYQQKPGKAPKLLIYHASSLQSGVPSRFSGSGSGTDFTLTISSLQPEDFATYYCQQRDSYPLTFGQGTKVEIKR | –
